Where a chain is given by its changes, count along the chain named. Names may count otherwise. Where two headings read alike, the source gives them in different places.
What was measured:
[1] = biological target: T1, mouse SEMA4A expressed on expi293 cells (UniProt ID Q62178) (mouse, UniProt Q62178 33-760); assay: Mirrorball direct binding, dilution series on expi293 cells transiently transfected with mouse SEMA4A, anti-human Alexa Fluor 647
T1 construct: Transient transfection in expi293 cells
T1 sequence: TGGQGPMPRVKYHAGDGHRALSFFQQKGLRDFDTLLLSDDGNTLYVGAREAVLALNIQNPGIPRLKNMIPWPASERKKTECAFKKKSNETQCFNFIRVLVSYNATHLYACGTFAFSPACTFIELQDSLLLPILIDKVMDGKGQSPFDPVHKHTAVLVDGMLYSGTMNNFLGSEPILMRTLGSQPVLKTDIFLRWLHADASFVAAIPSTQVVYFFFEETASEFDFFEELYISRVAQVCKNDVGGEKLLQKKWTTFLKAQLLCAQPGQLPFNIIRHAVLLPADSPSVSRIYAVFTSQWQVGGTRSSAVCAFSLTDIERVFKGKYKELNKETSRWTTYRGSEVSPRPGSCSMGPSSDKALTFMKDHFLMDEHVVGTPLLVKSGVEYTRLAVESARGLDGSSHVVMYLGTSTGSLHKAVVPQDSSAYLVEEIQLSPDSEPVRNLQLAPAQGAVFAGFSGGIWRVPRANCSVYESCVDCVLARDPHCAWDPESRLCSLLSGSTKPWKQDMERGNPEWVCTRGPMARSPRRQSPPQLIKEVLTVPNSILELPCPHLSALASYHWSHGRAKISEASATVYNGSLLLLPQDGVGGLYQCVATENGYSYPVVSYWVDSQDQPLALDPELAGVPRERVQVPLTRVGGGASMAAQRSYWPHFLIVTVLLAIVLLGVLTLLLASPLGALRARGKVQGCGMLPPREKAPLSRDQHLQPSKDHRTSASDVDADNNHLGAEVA
Excerpt: (§1) Hits from the primary screening were re-formatted into the human Alya IgG1 vector and re-expressed and purified as described in section 4.1. In addition, a single clone was identified that contained an Asparagine deamidation motif (Asn Gly) within its VHCDR2. This potential sequence liability was de-risked by synthesising de novo two clonal variant VH genes (Asn Ala and Gln Gly) and cloning these sequences into the human Alya IgG1 expression vector. To determine the specificity profile of each purified human Alya IgG1, a dilution series was tested for binding to human SEMA4A, mouse SEMA4A, cyno SEMA4A, human SEMA4B and mock transfected cells (transient transfections set up in expi 293 cells.) The five assays employed methods described in section 2.3, using the appropriate cells and substituting the un-purified scFv periplasmic preparation with the recombinant human Alya IgG1 dilution series. Data was analysed as Count x median mean intensity (x FLU).

[2] = biological target: T2, human SEMA4B expressed on expi293 cells (human, UniProt Q9NPR2 44-837); assay: Mirrorball direct binding, dilution series on expi293 cells transiently transfected with human SEMA4B, anti-human Alexa Fluor 647
T2 construct: whole, on cells
T2 sequence (looked up): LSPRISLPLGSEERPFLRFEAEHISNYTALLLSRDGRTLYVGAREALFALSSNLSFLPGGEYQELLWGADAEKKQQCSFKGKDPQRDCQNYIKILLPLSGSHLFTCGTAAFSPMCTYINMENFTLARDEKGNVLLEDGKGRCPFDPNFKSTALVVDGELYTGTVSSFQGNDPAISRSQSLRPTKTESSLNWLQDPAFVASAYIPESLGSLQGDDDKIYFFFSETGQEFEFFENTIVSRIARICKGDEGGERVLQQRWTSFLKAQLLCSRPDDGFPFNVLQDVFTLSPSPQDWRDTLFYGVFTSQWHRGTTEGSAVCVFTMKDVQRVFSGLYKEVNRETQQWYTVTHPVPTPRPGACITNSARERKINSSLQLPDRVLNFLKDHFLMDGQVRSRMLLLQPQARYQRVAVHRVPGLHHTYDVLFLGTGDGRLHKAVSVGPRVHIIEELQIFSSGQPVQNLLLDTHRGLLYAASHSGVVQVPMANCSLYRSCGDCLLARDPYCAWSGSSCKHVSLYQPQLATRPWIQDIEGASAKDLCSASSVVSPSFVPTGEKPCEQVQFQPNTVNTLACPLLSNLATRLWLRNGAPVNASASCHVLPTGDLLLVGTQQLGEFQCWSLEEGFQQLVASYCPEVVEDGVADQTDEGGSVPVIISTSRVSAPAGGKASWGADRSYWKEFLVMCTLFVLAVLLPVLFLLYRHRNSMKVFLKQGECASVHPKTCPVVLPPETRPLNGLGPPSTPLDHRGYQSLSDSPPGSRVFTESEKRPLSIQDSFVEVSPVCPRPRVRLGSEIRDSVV
Excerpt: as §1

[3] = biological target: T3, human SEMA4A expressed on cells (UniProt ID Q9H3S1, isoform 1) (human, UniProt Q9H3S1 33-761); assay: cell-based or functional assay
T3 sequence: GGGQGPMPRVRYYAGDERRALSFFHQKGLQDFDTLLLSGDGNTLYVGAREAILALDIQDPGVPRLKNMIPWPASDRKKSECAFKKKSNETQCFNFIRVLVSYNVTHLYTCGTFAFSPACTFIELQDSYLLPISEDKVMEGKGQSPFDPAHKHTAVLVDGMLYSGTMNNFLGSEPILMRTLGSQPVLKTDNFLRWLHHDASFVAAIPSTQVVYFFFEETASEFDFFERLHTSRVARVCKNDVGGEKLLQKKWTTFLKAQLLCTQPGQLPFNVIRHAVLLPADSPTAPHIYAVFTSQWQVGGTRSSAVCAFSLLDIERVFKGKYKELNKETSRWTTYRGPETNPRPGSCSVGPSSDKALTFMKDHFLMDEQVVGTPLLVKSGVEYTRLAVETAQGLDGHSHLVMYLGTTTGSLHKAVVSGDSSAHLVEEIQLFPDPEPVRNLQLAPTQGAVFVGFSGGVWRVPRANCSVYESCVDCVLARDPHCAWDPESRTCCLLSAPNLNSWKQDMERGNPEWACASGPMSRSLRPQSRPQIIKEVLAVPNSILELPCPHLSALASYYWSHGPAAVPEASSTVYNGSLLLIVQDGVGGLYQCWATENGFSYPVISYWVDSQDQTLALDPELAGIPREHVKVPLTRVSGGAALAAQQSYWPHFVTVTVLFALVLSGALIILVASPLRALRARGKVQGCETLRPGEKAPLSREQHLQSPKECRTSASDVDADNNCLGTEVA

[4] = biological target: T2, human SEMA4B expressed on expi293 cells; assay: Mirrorball direct binding, dilution series on expi293 cells transiently transfected with human SEMA4B, anti-human Alexa Fluor 647; remark: listed apart in the source
Method: To determine the specificity profile of each purified human Alya IgG1 conjugated to McMMAF, a dilution series was tested for binding to human SEMA4A, human SEMA4B and mock transfected cells (transient transfections set up in expi 293 cells.) The three assays employed methods described in section 2.3, using the appropriate cells and substituting the un-purified scFv periplasmic preparation with the human Alya IgG1 conjugated to McMMAF. Data was analysed as Count x median mean intensity (x FLU).

[5] = biological target: T3, human SEMA4A expressed on cells …; assay: cell-based or functional assay; remark: listed apart in the source
[6] = biological target: T3, human SEMA4A expressed on cells …; assay: cell-based or functional assay; remark: listed apart in the source

B1: C0120919 (antibody, V domains shown)
VH: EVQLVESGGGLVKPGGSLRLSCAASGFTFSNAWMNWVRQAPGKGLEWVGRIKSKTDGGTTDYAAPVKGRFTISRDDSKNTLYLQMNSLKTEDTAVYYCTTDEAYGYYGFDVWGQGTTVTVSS
VL: QSALTQPPSVSVSSGQTASITCSGDKLGDKYASWYQQKPGQSPVLVIYQDTKRPSEIPERFSGSNSGNTATLTISGTQAMDEADYYCQAWDSSLVFGGGTKVTVL
modifications: 239iCys and S442C (EU numbering) in the constant region
notes: purified, unconjugated; also called C0120919 human Alya IgG1 (unconjugated)
[1]
  binding result: binds
[2]
  binding result: no binding (tested: log (M) -8 (1e-8 M))

B2: C0120913 (antibody, V domains shown)
VH: QVQLVQSGAEVKKPGESLKISCKGSGYSFTSYWVGWVRQMPGKGLEWMGIIYPGDSDARYGPSFQGQVTISADKSINTAYLQWNSLKASDTATYYCARLGDGAYYYYLDVWGRGTMVTVSS
VL: SYELTQPPSVSESPGRTVTISCSGSSGSIASNFVHWYQQRPGSAPTTVIYEDDQRPSGVPDRFSGSIDSSSNSASLTISGLKTEDEADYYCQSYDNNDHAVFGGGTKLTVL
modifications: 239iCys and S442C (EU numbering) in the constant region
notes: purified, unconjugated; also called C0120913 human Alya IgG1 (unconjugated)
[1]
  binding result: binds

B3: 5Hg1-5Lg2 human Alya IgG1 conjugated to McMMAF (antibody, V domains shown)
VH: QVQLVQSGAEVKKPGASVKVSCKASGYTFTDYWMHWVRQAPGQGLEWMGAIDTSDSYTSYNQKFKGRVTMTRDTSTSTVYMELSSLRSEDTAVYYCARDYGNFYYYAMDYWGQGTLVTVSS
VL: QAVVTQEPSLTVSPGGTVTLTCRSSTGAVTTSNYANWFQQKPGQAPRTLIYGTNNRAPWTPARFSGSLLGGKAALTLLGAQPEDEAEYYCALWYSNHWVFGGGTKLTVL
modifications: McMMAF on the engineered cysteines 239iCys and S442C (EU numbering) of the heavy constant region
notes: Antibody-drug conjugate; human IgG1 Alya constant
[3]
  EC50 (nM), Fab-pHast internalisation into NCI-H929: 0.75 nM
  Fold-Change at 6 hours (10 nM), Fab-pHast internalisation: 150 fold
[4]
  binding result: no binding (tested: log (M) -8 (1e-8 M))
[5]
  Average KARPAS 25 IC50 [pM], cell kill: 317 pM
  Average MM1.S IC50 [pM], cell kill: 15.8 pM
  Average NCI-H929 IC50 [pM], cell kill: 59.4 pM

B4: 5Hg2-5Lg3 human Alya IgG1 conjugated to McMMAF (antibody, V domains shown)
VH: B3 VH with G44R, M70I, T76A, V79A
VL: QTVVTQEPSFSVSPGGTVTLTCRSSTGAVTTSNYANWYQQTPGQAPRTLIYGTNNRAPGVPDRFSGSILGNKAALTITGAQADDESDYYCALWYSNHWVFGGGTKLTVL
modifications: McMMAF on the engineered cysteines 239iCys and S442C (EU numbering) of the heavy constant region
notes: as for B3
[4]
  binding result: no binding (tested: log (M) -8 (1e-8 M))
[5]
  Average KARPAS 25 IC50 [pM], cell kill: 316 pM
  Average MM1.S IC50 [pM], cell kill: 102 pM
  Average NCI-H929 IC50 [pM], cell kill: 863 pM

B5: 5Hg2-5Lg1 human Alya IgG1 conjugated to McMMAF (antibody, V domains shown)
VH: B3 VH with G44R, M70I, T76A, V79A
VL: B3 VL with L78S
modifications: McMMAF on the engineered cysteines 239iCys and S442C (EU numbering) of the heavy constant region
notes: as for B3
[3]
  EC50 (nM), Fab-pHast internalisation into NCI-H929: 0.62 nM
  Fold-Change at 6 hours (10 nM), Fab-pHast internalisation: 144 fold
[4]
  binding result: no binding (tested: log (M) -8 (1e-8 M))
[5]
  Average KARPAS 25 IC50 [pM], cell kill: 228 pM
  Average MM1.S IC50 [pM], cell kill: 11.8 pM
  Average NCI-H929 IC50 [pM], cell kill: 33.6 pM

B6: C0120910 human Alya IgG1 conjugated to McMMAF (antibody, V domains shown)
VH: QVQLVESGGGVVQPGRSLRLSCEASEFTFSNYAMHWVRQAPDKGLEWVAGILYDGATAHYADSVKGRFTISRDNSKNTLYLQINSLRAEDTAVYYCARAHYYDYWSGLSFEYWGRGTLVTVSS
VL: QSVLTQPPSASVSPGQTASIPCSGDDLGDKYIYWYQQKPGQSPVLVIYQDSRRPPGIPERFSGSNSGNTATLTISGTQPMDEADYYCQTWDTSSASAVFGGGTKVTVL
modifications: McMMAF on the engineered cysteines 239iCys and S442C (EU numbering) of the heavy constant region
notes: as for B3
[4]
  binding result: no binding (tested: log (M) -8 (1e-8 M))
[6]
  Average MM1.S IC50 [pM], cell kill: 7490 pM
  Average NCI-H929 IC50 [pM], cell kill: 3990 pM

B7: C0120910 (antibody, V domains shown)
VH: B6 VH
VL: B6 VL
modifications: 239iCys and S442C (EU numbering) in the constant region
notes: purified, unconjugated; also called C0120910 human Alya IgG1 (unconjugated)
[1]
  binding result: binds

B8: C0120904 human Alya IgG1 conjugated to McMMAF (antibody, V domains shown)
VH: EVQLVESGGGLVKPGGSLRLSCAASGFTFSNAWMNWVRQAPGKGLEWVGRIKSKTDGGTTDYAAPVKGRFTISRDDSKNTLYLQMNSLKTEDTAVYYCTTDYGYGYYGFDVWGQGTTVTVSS
VL: SYELTQPPSVSVSPGQTATISCSGNKLGDGYVSWYQQKPGQSPVLVIYQDSKRPSGIPQRYSGSNSGNTATLTISGTQAIDEADYYCQAWDSSTVVFGGGTKVTVL
modifications: McMMAF on the engineered cysteines 239iCys and S442C (EU numbering) of the heavy constant region
notes: as for B3
[4]
  binding result: no binding (tested: log (M) -8 (1e-8 M))
[6]
  Average MM1.S IC50 [pM], cell kill: 1490 pM
  Average NCI-H929 IC50 [pM], cell kill: 18100 pM

B9: C0120904 (antibody, V domains shown)
VH: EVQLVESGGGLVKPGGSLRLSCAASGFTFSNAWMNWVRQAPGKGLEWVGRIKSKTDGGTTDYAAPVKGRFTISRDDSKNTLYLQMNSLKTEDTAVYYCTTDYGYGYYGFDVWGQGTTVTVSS
VL: B8 VL
modifications: 239iCys and S442C (EU numbering) in the constant region
notes: purified, unconjugated; also called C0120904 human Alya IgG1 (unconjugated)
[1]
  binding result: binds
[2]
  binding result: no binding (tested: log (M) -8 (1e-8 M))

From patent publication US20250152729A1 (CANCER RESEARCH TECHNOLOGY, published 2025)
